Article PMC5382158 (Frontiers in Cellular and Infection Microbiology, 2017)

T1: Rv2617c-T18 (M. tuberculosis, UniProt I6XER9 1-146)
T1 sequence: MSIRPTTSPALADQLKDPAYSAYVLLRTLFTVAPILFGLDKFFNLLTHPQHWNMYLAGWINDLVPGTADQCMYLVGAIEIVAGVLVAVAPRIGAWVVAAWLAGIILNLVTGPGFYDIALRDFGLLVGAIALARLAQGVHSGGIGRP

T2: NarK2-T18 (M. tuberculosis, UniProt P9WJY7 1-395)
T2 sequence: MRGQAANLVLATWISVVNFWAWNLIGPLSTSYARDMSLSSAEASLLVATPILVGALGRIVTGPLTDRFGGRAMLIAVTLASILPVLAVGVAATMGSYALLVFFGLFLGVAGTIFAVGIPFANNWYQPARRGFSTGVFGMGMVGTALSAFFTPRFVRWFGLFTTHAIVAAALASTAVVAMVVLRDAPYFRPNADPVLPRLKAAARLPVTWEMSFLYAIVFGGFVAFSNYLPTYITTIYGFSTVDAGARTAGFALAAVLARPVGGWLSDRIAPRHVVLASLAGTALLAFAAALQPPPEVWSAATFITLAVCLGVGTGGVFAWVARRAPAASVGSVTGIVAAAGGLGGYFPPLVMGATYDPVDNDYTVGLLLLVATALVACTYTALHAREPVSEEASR


Experiments:
Experiment in all cases: two-hybrid
[1] = target: NarI-T18 (M. tuberculosis)
Rv2617c-T18 = target: T1, Rv2617c-T18; conditions: partners not purified
NarK2-T18 = target: T2, NarK2-T18; conditions: partners not purified

Molecule	β-galactosidase activity [1] [Miller units]	β-galactosidase activity (Rv2617c-T18) [Miller units]	β-galactosidase activity (NarK2-T18) [Miller units]
KdpF-T25 (peptide)	720	–	–
MTTVDNIVGLVIAVALMAFLFAALLFPEKF [KdpF-T25]	–	1870	868
